{"source": "paper PMC6235537", "about": "(Science Advances, 2018)", "key": {"GM^CBM21": {"target": "T1, GM^CBM21 (Oryctolagus cuniculus, UniProt Q00756)", "T1 sequence (Q00756 102-237)": "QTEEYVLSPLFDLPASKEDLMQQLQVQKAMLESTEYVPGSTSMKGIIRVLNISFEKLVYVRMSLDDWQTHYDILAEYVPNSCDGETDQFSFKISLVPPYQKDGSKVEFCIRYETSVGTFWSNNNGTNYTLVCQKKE", "assay": "ITC", "format": "binding"}, "[1]": {"target": "PP1α_(7–300) (as crystallised with GM^64–93 and microcystin-LR) (UniProt P62136 7-300)", "sequence (P62136 7-300)": "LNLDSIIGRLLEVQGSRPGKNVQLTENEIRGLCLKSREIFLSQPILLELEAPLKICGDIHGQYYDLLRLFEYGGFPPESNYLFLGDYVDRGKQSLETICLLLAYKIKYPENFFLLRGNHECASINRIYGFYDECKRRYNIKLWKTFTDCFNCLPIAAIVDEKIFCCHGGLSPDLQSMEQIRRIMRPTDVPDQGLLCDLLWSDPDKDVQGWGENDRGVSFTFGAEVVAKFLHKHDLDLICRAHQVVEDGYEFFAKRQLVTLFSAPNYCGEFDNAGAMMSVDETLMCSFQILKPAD", "assay": "crystal structure"}, "His6-tagged PP1α_(7–330) [2]": {"target": "T2, His6-tagged PP1α_(7–330) (UniProt P62136 7-330)", "T2 sequence (P62136 7-330)": "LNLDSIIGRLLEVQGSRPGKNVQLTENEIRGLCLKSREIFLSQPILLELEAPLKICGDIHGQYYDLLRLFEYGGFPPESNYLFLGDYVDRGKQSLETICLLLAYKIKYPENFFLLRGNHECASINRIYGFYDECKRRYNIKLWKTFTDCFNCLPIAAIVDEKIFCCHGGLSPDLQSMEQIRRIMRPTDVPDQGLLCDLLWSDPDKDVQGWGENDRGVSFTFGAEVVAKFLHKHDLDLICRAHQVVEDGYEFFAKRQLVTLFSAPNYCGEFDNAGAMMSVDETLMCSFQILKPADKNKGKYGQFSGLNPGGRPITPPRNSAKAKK", "assay": "ITC"}, "His6-tagged PP1α_(7–330) [3]": {"target": "T2, His6-tagged PP1α_(7–330)", "assay": "SPR"}, "His6-tagged PP1α_(7–300)": {"target": "His6-tagged PP1α_(7–300) (UniProt P62136 7-300)", "sequence (P62136 7-300)": "as the sequence (P62136 7-300) above", "assay": "ITC"}, "His6-tagged PP1β_(6–327)": {"target": "His6-tagged PP1β_(6–327) (UniProt P62140 6-327)", "sequence (P62140 6-327)": "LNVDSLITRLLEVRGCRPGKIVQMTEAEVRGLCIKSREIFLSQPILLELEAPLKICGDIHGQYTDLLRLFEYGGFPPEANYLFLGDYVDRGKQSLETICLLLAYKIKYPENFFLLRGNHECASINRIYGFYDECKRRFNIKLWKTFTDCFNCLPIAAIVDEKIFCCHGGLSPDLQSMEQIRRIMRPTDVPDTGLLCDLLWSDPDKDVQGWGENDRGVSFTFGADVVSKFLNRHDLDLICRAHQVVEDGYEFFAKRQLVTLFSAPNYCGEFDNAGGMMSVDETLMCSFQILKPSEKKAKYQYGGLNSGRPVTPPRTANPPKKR", "assay": "ITC"}, "His6-tagged PP1γ_(7–323)": {"target": "His6-tagged PP1γ_(7–323) (UniProt P36873 7-323)", "sequence (P36873 7-323)": "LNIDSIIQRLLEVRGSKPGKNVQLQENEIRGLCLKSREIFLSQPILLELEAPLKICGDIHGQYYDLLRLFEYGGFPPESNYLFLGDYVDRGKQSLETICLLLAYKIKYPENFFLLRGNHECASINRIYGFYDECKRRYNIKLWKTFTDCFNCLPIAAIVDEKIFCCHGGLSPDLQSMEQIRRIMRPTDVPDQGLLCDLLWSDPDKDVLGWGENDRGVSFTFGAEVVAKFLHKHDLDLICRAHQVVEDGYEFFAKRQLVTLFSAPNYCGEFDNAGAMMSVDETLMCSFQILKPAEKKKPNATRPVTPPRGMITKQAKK", "assay": "ITC"}, "His6-tagged PP1γ_(7–308)": {"target": "His6-tagged PP1γ_(7–308) (UniProt P36873 7-308)", "sequence (P36873 7-308)": "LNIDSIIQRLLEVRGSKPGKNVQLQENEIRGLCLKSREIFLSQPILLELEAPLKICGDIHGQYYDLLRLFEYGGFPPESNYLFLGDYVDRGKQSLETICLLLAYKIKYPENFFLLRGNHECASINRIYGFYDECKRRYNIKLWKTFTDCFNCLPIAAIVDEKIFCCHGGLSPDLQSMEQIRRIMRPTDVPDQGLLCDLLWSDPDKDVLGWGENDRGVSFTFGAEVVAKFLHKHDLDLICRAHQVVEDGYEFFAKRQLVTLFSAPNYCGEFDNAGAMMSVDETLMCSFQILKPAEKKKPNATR", "assay": "ITC"}}}
{"molecule": "OC[C@H]1O[C@@H]2O[C@H]3[C@H](O)[C@@H](O)[C@@H](O[C@H]4[C@H](O)[C@@H](O)[C@@H](O[C@H]5[C@H](O)[C@@H](O)[C@@H](O[C@H]6[C@H](O)[C@@H](O)[C@@H](O[C@H]7[C@H](O)[C@@H](O)[C@@H](O[C@H]1[C@H](O)[C@H]2O)O[C@@H]7CO)O[C@@H]6CO)O[C@@H]5CO)O[C@@H]4CO)O[C@@H]3CO", "note": "[α-CD]", "values": [{"measurement": "Kd", "setting": "GM^CBM21", "value": 27.6, "unit": "µM"}]}
{"molecule": "OC[C@H]1O[C@@H]2O[C@H]3[C@H](O)[C@@H](O)[C@@H](O[C@H]4[C@H](O)[C@@H](O)[C@@H](O[C@H]5[C@H](O)[C@@H](O)[C@@H](O[C@H]6[C@H](O)[C@@H](O)[C@@H](O[C@H]7[C@H](O)[C@@H](O)[C@@H](O[C@H]8[C@H](O)[C@@H](O)[C@@H](O[C@H]1[C@H](O)[C@H]2O)O[C@@H]8CO)O[C@@H]7CO)O[C@@H]6CO)O[C@@H]5CO)O[C@@H]4CO)O[C@@H]3CO", "note": "[β-CD]", "values": [{"measurement": "Kd", "setting": "GM^CBM21", "value": "8.2 ± 0.1", "unit": "µM"}]}
{"molecule": "RRVSFADNFGFNLVSVKEFDTWELPSVSTT", "note": "[GM^64–93 peptide]", "values": [{"measurement": "binding result", "setting": "[1]", "value": "binds"}]}
{"molecule": "GM^2–237 (muscle glycogen-targeting subunit of PP1, PPP1R3A, residues 2 to 237) (domain or fragment) EPSEVPGQNSKDNFLEVPNLSDSLCEDEEVKAIFKPGFSPQPSRRGSESSEEVYVHTASSGGRRVSFADNFGFNLVSVKEFDTWELPSVSTTFELGKDAFQTEEYVLSPLFDLPASKEDLMQQLQVQKAMLESTEYVPGSTSMKGIIRVLNISFEKLVYVRMSLDDWQTHYDILAEYVPNSCDGETDQFSFKISLVPPYQKDGSKVEFCIRYETSVGTFWSNNNGTNYTLVCQKKE", "values": [{"measurement": "Kd", "setting": "His6-tagged PP1α_(7–330) [2]", "value": "0.0265 ± 0.0023", "unit": "µM"}, {"measurement": "dH", "setting": "His6-tagged PP1α_(7–330) [2]", "value": "-84.5 ± 4.18", "unit": "kJ/mol"}]}
{"molecule": "RRVSFADNFGFNLVSVKEFDTWELPSVSTTFELGKDAFQTEE", "note": "[GM^64–105 peptide]", "values": [{"measurement": "Kd", "setting": "His6-tagged PP1α_(7–330) [3]", "value": "0.114 ± 0.004", "unit": "µM"}]}
{"molecule": "GM^64–237 (domain or fragment) RRVSFADNFGFNLVSVKEFDTWELPSVSTTFELGKDAFQTEEYVLSPLFDLPASKEDLMQQLQVQKAMLESTEYVPGSTSMKGIIRVLNISFEKLVYVRMSLDDWQTHYDILAEYVPNSCDGETDQFSFKISLVPPYQKDGSKVEFCIRYETSVGTFWSNNNGTNYTLVCQKKE", "values": [{"measurement": "Kd", "setting": "His6-tagged PP1α_(7–300)", "value": "0.051 ± 0.0051", "unit": "µM"}, {"measurement": "dH", "setting": "His6-tagged PP1α_(7–300)", "value": "-105 ± 3.77", "unit": "kJ/mol"}, {"measurement": "Kd", "setting": "His6-tagged PP1β_(6–327)", "value": "0.0173 ± 0.004", "unit": "µM"}, {"measurement": "dH", "setting": "His6-tagged PP1β_(6–327)", "value": "-64.4 ± 3.35", "unit": "kJ/mol"}, {"measurement": "Kd", "setting": "His6-tagged PP1γ_(7–323)", "value": "0.0214 ± 0.0116", "unit": "µM"}, {"measurement": "dH", "setting": "His6-tagged PP1γ_(7–323)", "value": "-94.56 ± 0.418", "unit": "kJ/mol"}, {"measurement": "Kd", "setting": "His6-tagged PP1α_(7–330) [2]", "value": "0.0208 ± 0.0024", "unit": "µM"}, {"measurement": "dH", "setting": "His6-tagged PP1α_(7–330) [2]", "value": "-144 ± 10", "unit": "kJ/mol"}, {"measurement": "Kd", "setting": "His6-tagged PP1γ_(7–308)", "value": "0.0557 ± 0.0051", "unit": "µM"}, {"measurement": "dH", "setting": "His6-tagged PP1γ_(7–308)", "value": "-55.6 ± 21.8", "unit": "kJ/mol"}]}
